Assay results taken from patent publication US20200369766A1 (LEIDOS, published 2020).
Several values for one entry are separate records, joined by “and”; a condition that tells them apart may be missing. Equal entries are not always repeated. Blank lines part the entries; values can stand above or below the binder they belong to.

Columns and labels:
Tag1-LAG3 [1] = assay: HTRF LAG3/MHC-II; peptide log M -7.0103
Tag1-LAG3 [2] = assay: HTRF LAG3/MHC-II; peptide log M -7.61236
Tag1-LAG3 [3] = assay: HTRF LAG3/MHC-II; peptide log M -9.41854
Tag1-LAG3 [4] = assay: HTRF LAG3/MHC-II; peptide log M -5.80618
Tag1-LAG3 [5] = assay: HTRF LAG3/MHC-II; peptide log M -4.60206
Tag1-LAG3 [6] = assay: HTRF LAG3/MHC-II; peptide log M -4
Tag1-LAG3 [7] = assay: HTRF LAG3/MHC-II; peptide log M -5.20412
Tag1-LAG3 [8] = assay: HTRF LAG3/MHC-II; peptide log M -10.6227
Tag1-LAG3 [9] = assay: HTRF LAG3/MHC-II; peptide log M -8.81648
Tag1-LAG3 [10] = assay: HTRF LAG3/MHC-II; peptide log M -8.21442
Tag1-LAG3 [11] = assay: HTRF LAG3/MHC-II; peptide log M -6.40824
Tag1-LAG3 [12] = assay: HTRF LAG3/MHC-II; peptide log M -10.0206
[13] = biological target: T1, human LAG3 expressed on Jurkat T cell line (human, UniProt P18627 23-525); assay: cell-based or functional assay
T1 sequence (looked up): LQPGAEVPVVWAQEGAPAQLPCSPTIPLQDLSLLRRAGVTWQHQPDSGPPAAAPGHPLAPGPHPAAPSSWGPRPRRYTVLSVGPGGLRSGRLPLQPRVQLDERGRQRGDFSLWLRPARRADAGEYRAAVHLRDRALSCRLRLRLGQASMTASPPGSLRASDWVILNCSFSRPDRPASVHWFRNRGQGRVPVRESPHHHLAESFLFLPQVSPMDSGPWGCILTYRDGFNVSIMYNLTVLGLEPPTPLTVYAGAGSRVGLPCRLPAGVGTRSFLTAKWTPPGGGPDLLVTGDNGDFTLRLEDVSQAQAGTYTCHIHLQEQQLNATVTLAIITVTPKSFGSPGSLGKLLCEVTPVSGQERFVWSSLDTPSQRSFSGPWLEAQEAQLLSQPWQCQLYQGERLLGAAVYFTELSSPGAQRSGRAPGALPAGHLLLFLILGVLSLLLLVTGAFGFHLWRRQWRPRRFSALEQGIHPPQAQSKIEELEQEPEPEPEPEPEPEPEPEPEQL

HTRF ratio (Tag1-LAG3 [1]): 8970 and 8380 and 8650 | HTRF ratio (Tag1-LAG3 [2]): 8780 and 8570 and 9020 | HTRF ratio (Tag1-LAG3 [3]): 8400 and 8790 and 8620 | HTRF ratio (Tag1-LAG3 [4]): 8830 and 9370 and 9180 | HTRF ratio (Tag1-LAG3 [5]): 8470 and 8680 and 8450 | HTRF ratio (Tag1-LAG3 [6]): 8490 and 8910 and 7150 | HTRF ratio (Tag1-LAG3 [7]): 8620 and 8580 and 9020 | HTRF ratio (Tag1-LAG3 [8]): 9090 and 8890 and 8630 | HTRF ratio (Tag1-LAG3 [9]): 8720 and 8640 and 8680 | HTRF ratio (Tag1-LAG3 [10]): 8620 and 8990 and 9220 | HTRF ratio (Tag1-LAG3 [11]): 8630 and 9280 and 9190 | HTRF ratio (Tag1-LAG3 [12]): 8990 and 8460 and 8360
B1: ovalbumin (OVA) peptide (peptide)
peptide: ISQAVHAAHAEINEAGR

fold inhibition (fold increase in luciferase activity, RLUs at 100 µM against 0.64 µM) [13]: ~2.8 fold
B2: LAG3-11 (peptide)
peptide: SAPWEPLHWPEDWWQGTGEW

fold inhibition (fold increase in luciferase activity, RLUs at 100 µM against 0.64 µM) [13]: ~2.2 fold
B3: LAG3-56 (peptide)
peptide: HIQNWSYWLNQDMMNQQVWKS
